{
  "source": "patent US7642400B2",
  "about": "“Protein kinase C iota” (Mayo Foundation for Medical Education and Research, priority 2004, dated 2010)",
  "molecules": {"B1": {"name": "PKCι(1-113): first 113 amino acids of PKCι, encompassing the PB1 domain, expressed in cells from a plasmid (protein)", "chain": "MPTQRDSSTMSHTVAGGGSGDHSHQVRVKAYYRGDIMITHFEPSISFEGLCNEVRDMCSFDNEQLFTMKWIDEEGDPCTVSSQLELEEAFRLYELNKDSELLIHVFPCVPERP"}},
  "key": {"[1]": {"target": "T1, interaction of PKCι polypeptides with PAR6 polypeptides (Homo sapiens, UniProt P41743)", "T1 construct": "amino acids 1-113 or a full-length PKCι polypeptide; 6xHis; made in house", "T1 sequence (P41743 10-122)": "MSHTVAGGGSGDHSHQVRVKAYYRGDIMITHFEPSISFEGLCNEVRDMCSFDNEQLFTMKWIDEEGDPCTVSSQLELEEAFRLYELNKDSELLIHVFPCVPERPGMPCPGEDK", "assay": "Primary screen: FRET assay of PKCι113-YFP-N1 (PYN) and PAR6125-CFP-C1", "conditions": "FIG. 18; less binding as concentration increased", "description": "A primary screen was performed as follows to identify test compound having the potential to inhibit the interaction of PKCι polypeptides with PAR6 polypeptides. Bacterially expressed PKCι113-YFP-N1 (PYN) was isolated from the soluble fraction of bacterial lysates by affinity purification according to the manufacturer's protocol (B-PER 6×His Purification Kit; Pierce). The purified polypeptide was dialyzed against Tris buffer (50 mM Tris, pH 8.0; 135 mM NaCl; 10% glycerol; 0.002% EDTA) containing 2 M urea. PAR6125-CFP-C1 recombinant polypeptide was isolated from the inclusion body pellets of bacterial lysates using the B-PER reagent (Pierce) according to the manufacturer's protocol. […] Yields were measured by fluorescence in a SpectraMax Gemini microplate reader (Molecular Devices).\nTo perform the assay, PYN was diluted to 4000 relative fluorescent units/50 μl in Tris buffer plus 1 M urea, and PAR6125-CFP-C1 was diluted to 400 relative fluorescent units/50 μl Tris buffer plus 1 M urea. […] Fluorescence was measured in a SpectraMax Gemini plate reader. Cyan fluorescence was measured at excitation 395 nm, emission 475 nm, and cutoff of 455 nm. Yellow fluorescence was measured at excitation 395 nm, emission 529, and cutoff of 515=n. […]"}, "[2]": {"target": "T1, interaction of PKCι polypeptides with PAR6 polypeptides", "assay": "Secondary screen: PYN bound to plate-immobilised biotin-tagged PAR6", "assay_type": "binding", "conditions": "increasing amounts, e.g. 0, 0.1, 1, 10, 100, and 100 μM", "description": "Multiple test compounds that were classified as hits in the primary screen as well as additional related compounds were evaluated in a secondary screen designed as follows. Briefly, a 96-well microtiter plate coated with streptavidin (Nunc #436014) was incubated for 2-4 hours at room temperature with 100 μl of a 20-30 μg/ml solution of biotin-tagged PAR6 (whole polypeptide) in phosphate-buffered saline containing Tween-20 (PBST). Plates were washed twice with PBST, then once with incubation buffer (50 mM Tris, pH 8.0; 135 mM NaCl; 10% glycerol; 0.002% EDTA). Incubation buffer (50 μl) was added to each well. The compounds to be tested were added (10 μl) followed by PYN (50 μl) diluted in incubation buffer to an approximate concentration of 4000-5000 relative fluorescent units per 50 μl. Plates were incubated overnight at 4° C. Plates were washed twice with incubation buffer, after which 50 μl incubation buffer was added to retain moisture in the wells. The amount of PYN bound on the plates was determined by measuring yellow fluorescence (532/526) in a Typhoon imager. Fluorescence was quantitated by Softmax Pro software.\nA dose-response analysis was performed using the secondary screening assay and increasing amounts (e.g., 0, 0.1, 1, 10, 100, and […]) of gossypol, hexestrol, thimerosal, ebselen, ATG, ATM, ellagic acid, cisplatin, apomorphine, or phenylmercuric acetate."}, "[3]": {"tested_on": "Rac1 activity in A549 cells", "assay": "Rac1 activity assay (affinity isolation of GTP-bound Rac1) in A549 cells", "assay_type": "cell-based, human", "conditions": "A549 cells treated with PSI or stably expressing PKCι(1-113); FIG. 12E", "description": "Rac 1 Activity Assays: Rac1 activity in A549 and H1299 cell transfectants was assessed by affinity isolation of GTP-bound Rac1 using binding domains of PAK as described previously (Sander et al., J. Cell Biol., 143(5):1385-98 (1998)). Briefly, cells were lysed in lysis buffer (50 mM Tris-HCl pH 7.5, 150 mM NaCl, 20 mM MgCl2, 5 mM EGTA, 10% glycerol, 1% Triton X-100, 1% NP-40, 25 mM NaF, 1 mM phenylmethylsulfonyl fluoride, 1 mM sodium orthovanadate, 10 μg/ml leupeptin, 10 μg/ml aprotinin) at 4° C. for 5 min. Cellular debris was removed by centrifugation at 20,000×g for 5 min, and supernatants were transferred to new tubes containing 20 μl of GST-p21-binding domain of PAK1 (PAK1-PBD) coupled to agarose beads (Upstate). An aliquot of each supernatant was reserved to determine total Rac1 and actin expression by immunoblot analysis. Following a 30-minute incubation at 4° C., the agarose beads were collected by centrifugation and washed three times in wash buffer (50 mM Tris-HCl pH 7.5, 150 mM NaCl, 20 mM MgCl2, 5 mM EGTA, 10% glycerol, 1% Triton X-100, 1% NP-40, 25 mM NaF, 1 mM phenylmethylsulfonyl fluoride, 1 mM sodium orthovanadate, 10 μg/ml leupeptin, 10 μg/ml aprotinin). Bound polypeptides were solubilized by the addition of 30 μl of SDS sample buffer, resolved by SDS-PAGE, and subjected to immunoblot analysis for Rac1. An equivalent aliquot of the total cell lysate was subjected to immunoblot analysis to determine total Rac1 expression.\nRac 1 Activity Assays: A549 cells were incubated with the indicated concentration of ATG for one hour prior to analysis. Rac1 activity in A549 cells was assessed by affinity isolation of GTP-bound Rac1 using binding domains of PAK as described elsewhere (Sander et al., J. Cell Biol., 143:1385-98 (1998)). Briefly, cells were lysed in lysis buffer (50 mM Tris-HCl pH 7.5, 150 mM NaCl, 20 mM MgCl2, 5 mM EGTA, 10% glycerol, 1% Triton X-100, 1% NP-40, 25 mM NaF, 1 mM phenylmethylsulfonyl fluoride, 1 mM sodium orthovanadate, 10 μg/ml leupeptin, and 10 μg/ml aprotinin) at 4° C. for 5 min. […]"}, "A549 cells [4]": {"tested_on": "A549 cells", "assay": "Soft agar growth assay (anchorage-independent growth) of A549 cells", "assay_type": "cell-based, human", "conditions": "A549 cells expressing PKCι(1-113) versus A549/LZRS; FIG. 12G", "description": "(§1) Anchorage-independent growth was assayed by the ability of cells to form colonies in soft agar. The bottom agar consisted of growth medium containing 10% FBS and 0.75% agarose in 60-mm tissue culture dishes. Nine hundred cells were resuspended in growth medium containing 10% FBS and 0.75% agarose, and plated on top of the bottom agar. The cells were incubated at 37° C. in 5% CO2. Cell colonies were visualized and quantified under a dissecting microscope (Olympus) after 4-6 weeks in culture.\nas §1, with “Soft Agar Growth Assays: Anchorage-independent growth” for “Anchorage-independent growth”, “and 0.75% agarose and plated” for “and 0.75% agarose, and plated”, “bottom agar. ATG was added at the indicated concentration to both bottom and top agar solutions. The cells” for “bottom agar. The cells”"}, "A549 cells [5]": {"tested_on": "A549 cells", "assay": "Cell invasion through Matrigel-coated chambers, A549 transfectants", "assay_type": "cell-based, human", "conditions": "A549 cells expressing PKCι(1-113) versus A549/LZRS; FIG. 12F", "description": "Cell Invasion and Soft Agar Growth Assays: A549 and H1299 transfectants were assayed for cell invasion using Matrigel-coated Transwell cell culture chambers (6,5-mm diameter, 8-μm pore size; BD Biosciences). A549 and H1299 cell transfectants in logarithmic growth phase were harvested with trypsin, the trypsin neutralized with serum-containing medium, and the cells pelleted and resuspended in serum-free growth medium. 2.5×10^4 cells were placed into the upper chamber of the Transwell insert, and growth medium containing 10% FBS was added to the lower chamber. After 22 hours at 37° C. in 5% CO2, non-invasive cells in the upper chambers were removed and invasive cells were fixed in 100% methanol and stained with 0.5% crystal violet (Sigma) in 2% ethanol. Cells which had invaded through the Matrigel-coated filter were counted on a microscope (X40, Olympus) using a calibrated ocular grid."}, "RIE/Ras cells": {"tested_on": "RIE/Ras cells", "assay": "Soft agar colony formation of RIE/Ras cells", "assay_type": "cell-based, rat", "conditions": "RIE/Ras/PKCι(1-113) versus RIE/Ras cells; FIG. 9", "excerpt": "To assess anchorage-independent growth, RIE cell transfectants were suspended in DMEM supplemented with 10% FBS, 1.5% agarose, and a 1% insulin, transferrin and selenium solution (Sigma-Aldrich), and plated (300 cells/60 mm dish) on a layer of 1.5% agar containing the same medium. Cell colonies were fixed with 20% methanol and stained with Giemsa after 7-14 days in culture and quantified under a dissecting microscope."}},
  "data": [
    {"molecule": "O=C(O)CC([S-])C(=O)O.[Au+]", "note": "(stereo not drawn) [ATM, aurothiomaleate]", "values": [
      {"measurement": "dose-response in the FRET assay: relative binding of PKCι and PAR6 polypeptides", "setting": "[1]", "result": "dose-dependent effect"},
      {"measurement": "dose-response analysis using the secondary screening assay", "setting": "[2]", "result": "dose-dependent response was detected"}
    ]},
    {"molecule": "B1", "values": [
      {"measurement": "Rac1 activity", "setting": "[3]", "result": "inhibits Rac1 activity"},
      {"measurement": "anchorage-independent growth in soft agar", "setting": "A549 cells [4]", "result": "inhibits"},
      {"measurement": "A549 cell invasion", "setting": "A549 cells [5]", "result": "inhibits"},
      {"measurement": "soft agar colony formation", "setting": "RIE/Ras cells", "result": "significantly less soft agar colony formation"}
    ]}
  ]
}
